Results from paper PMC5240623, “Methylation specific targeting of a chromatin remodeling complex from sponges to humans”.

B1: mCpG 17 bp, 3'-biotin (dsDNA)
DNA 1: GAGGCGCTCGGCGGCAG
DNA 2: CTGCCGCCGAGCGCCTC
modifications: 5-methyl-C at C9 of strand 1 and C8 of strand 2 (central CpG); two other CpGs unmethylated
B2: CpG(x3) 17 bp, 3'-biotin (dsDNA)
DNA 1: GAGGCGCTCGGCGGCAG
DNA 2: CTGCCGCCGAGCGCCTC

Legend:
HsMBD2 MBD [1] = biological target: T1, HsMBD2 MBD (Homo sapiens, UniProt Q9UBB5 150-214); assay: SPR; steady state; Rmax 0.93; SPR: 10 mM HEPES pH 7.4, 50 mM NaCl, 3 mM MgCl2, 0.1 mM EDTA, 1 mM DTT, 0.05% polysorbate 20, temperature not stated; NMR conditions not in material; settings: protein: recombinant; blunt
T1 sequence (Q9UBB5 150-214): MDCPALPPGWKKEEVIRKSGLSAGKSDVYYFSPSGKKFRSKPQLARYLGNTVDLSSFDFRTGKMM

HsMBD2 MBD [2] = biological target: T1, HsMBD2 MBD; assay: SPR; steady state; Rmax 6.0; SPR: 10 mM HEPES pH 7.4, 50 mM NaCl, 3 mM MgCl2, 0.1 mM EDTA, 1 mM DTT, 0.05% polysorbate 20, temperature not stated; NMR conditions not in material; settings: protein: recombinant; blunt

Binder	Kd (HsMBD2 MBD [1]) [µM]	Kd (HsMBD2 MBD [2]) [µM]
B1	0.33	
B2		81.7
